Values of other authors, collected in US8759488B2, “High stability streptavidin mutant proteins” (Isis Innovation Limited, priority 2009, dated 2014).
Where “and” joins values, the source holds several entries; their conditions need not be identical. Equal entries are not always repeated.

B1: monomeric streptavidin: streptavidin subunit unable to tetramerise, e.g. with mutations T76R, V125R, V55T and L109T (protein)
chain: DPSKDSKAQVSAAEAGITGTWYNQLGSTFIVTAGADGALTGTYESAVGNAESRYTLTGRYDSAPATDGSGTALGWRVAWKNNYRNAHSATTWSGQYVGGAEARINTQWTLTSGTTEANAWKSTLRGHDTFTKVKPSAASIDAAKKAGVNNGNPLDAVQQ
- half life for biotin (biotin): approximately 3 minutes
- off rate of biotin (free biotin): 0.0034 s⁻¹ and 0.0041 s⁻¹
